The results in this text go back to paper PMC5638086, “Assessment of the protein interaction between coagulation factor XII and corn trypsin inhibitor by molecular docking and biochemical validation” (Journal of Thrombosis and Haemostasis, 2017).

In general, IC50 refers to the concentration needed to halve the response being measured. A high value points to weaker potency.

To fix the notation:
T1: α‐FXIIa (Homo sapiens, UniProt P00748)
T1 construct: purchased Enzyme Research Laboratories (Swansea, UK)
T1 sequence (P00748 373-615 limits assumed): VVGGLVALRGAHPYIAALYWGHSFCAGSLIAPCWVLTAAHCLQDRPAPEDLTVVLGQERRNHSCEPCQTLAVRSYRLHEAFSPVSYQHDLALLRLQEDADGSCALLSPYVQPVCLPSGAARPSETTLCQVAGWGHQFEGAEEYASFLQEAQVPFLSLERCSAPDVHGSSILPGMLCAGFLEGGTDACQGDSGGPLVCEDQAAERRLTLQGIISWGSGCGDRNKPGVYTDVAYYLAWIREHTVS
T1 sequence (P00748 20-372 partner limits assumed): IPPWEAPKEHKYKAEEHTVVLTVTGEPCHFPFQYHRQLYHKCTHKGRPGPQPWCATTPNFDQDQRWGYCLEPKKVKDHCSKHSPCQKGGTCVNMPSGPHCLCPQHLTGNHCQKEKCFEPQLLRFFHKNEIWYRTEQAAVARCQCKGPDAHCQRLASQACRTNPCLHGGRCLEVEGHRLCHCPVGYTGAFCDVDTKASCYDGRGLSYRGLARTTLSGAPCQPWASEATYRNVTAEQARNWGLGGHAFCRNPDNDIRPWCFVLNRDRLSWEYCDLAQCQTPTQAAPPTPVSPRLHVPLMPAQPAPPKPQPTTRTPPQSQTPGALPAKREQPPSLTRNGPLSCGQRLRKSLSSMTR

B1: L35A: rec‐CTI variant, alanine substitution of Leu35 (protein)
chain: SAGTSCVPGWAIPHNPLPSCRWYVTSRTCGIGPRAPWPELKRRCCRELADIPAYCRCTALSILMDGAIPPGPDAQLEGRLEDLPGCPREVQRGFAATLVTEAECNLATISGVAECPWILGGGTMPSK
modifications: assayed as His6-GST fusion (tag omitted); disulfides
B2: W37A: rec‐CTI variant, alanine substitution of Trp37 (protein)
chain: SAGTSCVPGWAIPHNPLPSCRWYVTSRTCGIGPRLPAPELKRRCCRELADIPAYCRCTALSILMDGAIPPGPDAQLEGRLEDLPGCPREVQRGFAATLVTEAECNLATISGVAECPWILGGGTMPSK
modifications: assayed as His6-GST fusion (tag omitted); disulfides
B3: R42A: rec‐CTI variant, alanine substitution of Arg42 (protein)
chain: SAGTSCVPGWAIPHNPLPSCRWYVTSRTCGIGPRLPWPELKARCCRELADIPAYCRCTALSILMDGAIPPGPDAQLEGRLEDLPGCPREVQRGFAATLVTEAECNLATISGVAECPWILGGGTMPSK
modifications: assayed as His6-GST fusion (tag omitted); disulfides
B4: R42A/R43A: rec‐CTI R42A/R43A double mutant (protein)
chain: SAGTSCVPGWAIPHNPLPSCRWYVTSRTCGIGPRLPWPELKAACCRELADIPAYCRCTALSILMDGAIPPGPDAQLEGRLEDLPGCPREVQRGFAATLVTEAECNLATISGVAECPWILGGGTMPSK
modifications: assayed as His6-GST fusion (tag omitted); disulfides
B5: E39A: rec‐CTI variant, alanine substitution of Glu39 (protein)
chain: SAGTSCVPGWAIPHNPLPSCRWYVTSRTCGIGPRLPWPALKRRCCRELADIPAYCRCTALSILMDGAIPPGPDAQLEGRLEDLPGCPREVQRGFAATLVTEAECNLATISGVAECPWILGGGTMPSK
modifications: assayed as His6-GST fusion (tag omitted); disulfides
B6: R27A/E39A: rec‐CTI double substitution R27A/E39A (protein)
chain: SAGTSCVPGWAIPHNPLPSCRWYVTSATCGIGPRLPWPALKRRCCRELADIPAYCRCTALSILMDGAIPPGPDAQLEGRLEDLPGCPREVQRGFAATLVTEAECNLATISGVAECPWILGGGTMPSK
modifications: assayed as His6-GST fusion (tag omitted); disulfides

Where a SMILES comes first, the peptide text is derived from it. Bridges are numbered along the chain shown (N, C = ends). Where no end group is shown, it is not given here.

For the first test, the target named is T1, α‐FXIIa. The test is described as follows: α‐FXIIa enzymatic assay (S‐2302 chromogenic substrate cleavage, pNA release). It is filed as biochemical. The settings on record: 200 μM substrate peptide, 10 nM α‐FXIIa. As to the method: The enzymatic activity of α‐FXIIa was measured by monitoring the amount of pNA chromophore released from substrate H‐D‐Pro‐Phe‐Arg‐pNA (S‐2302). Assays were performed in a 100‐μL volume at 33 °C in 96‐well plates in a Perkin Elmer (Seer Green, UK) Envision plate reader, and pNA release was followed over a period of 6 h by reading the absorbance at 405 nm. Absorbance values were converted to pNA concentrations by comparison with a standard curve obtained under exactly the same instrument conditions. All absorbance values were within the linear measurement range of the instrument. Initial rates were calculated on the basis of the first 30 min of incubation. To assess the K M, concentrations of substrate peptide between 0.1 mM and 0.6 mM were incubated with 10 nM α‐FXIIa, enzymatic activity was measured as described above, and data were analyzed by non‐linear regression with the Michaelis–Menten algorithm (GRAPHPAD PRISM, version 6.04). To assess the inhibitory mechanism of CTI, 30 nM CTI was incubated with these same concentrations of substrate peptide, the reaction was initiated by the addition of 10 nM α‐FXIIa, enzymatic activity was measured as described above, and data were analyzed by non‐linear regression with the Michaelis–Menten algorithm (GRAPHPAD PRISM, version 6.04) and by linear regression after Lineweaver–Burk transformation. To assay inhibitors, concentrations of CTI variant proteins between 10^−8 M and 10^−5 M or concentrations of peptides between 10^−6 M and 10^−3 M were incubated with 200 μM substrate peptide, the reaction was initiated by addition of 10 nM α‐FXIIa, enzymatic activity was measured as described above, and IC50 values were determined by non‐linear regression analysis (GRAPHPAD PRISM, version 6.04) using the log[inhibitor] versus response – variable slope algorithm with a bottom constraint.
As to “glutathione‐S‐transferase [GST, reference compound]”, the “Inhibition of α‐FXIIa, result in words” value is recorded as “did not inhibit”.

Still in this test, the particulars now being: CTI variant proteins 10^−8 M to 10^−5 M, 200 μM S‐2302, 10 nM α‐FXIIa, 33 °C, initial rate of first 30 min, A405; SE of the fit, n = 3–5 independent experiments.
Take “glutathione‐S‐transferase [GST, reference compound]”: the “pIC50 ± SE” value is listed as “NIA”.

Still in this test, the particulars now being: CTI variant proteins 10^−8 M to 10^−5 M, 200 μM S‐2302, 10 nM α‐FXIIa, 33 °C, initial rate of first 30 min, A405; SE of the fit, n = 3–5 independent experiments; SEM.
For B1, the “pIC50 ± SE” value was found to be 5.31 ± 0.05.

With B2, the “pIC50 ± SE” value is 6.97 ± 0.06. Regarding B3, the “pIC50 ± SE” value came out at 6.72 ± 0.15. Turning to B4, the “pIC50 ± SE” value came to 4.98 ± 0.02. As to B5, the “pIC50 ± SE” value stood at 6.85 ± 0.06. For B6, the “pIC50 ± SE” value was found to be 6.58 ± 0.08.

The test is the same for the next values; noted with them: IC50 corresponding to the pIC50; CTI variant proteins 10^−8 M to 10^−5 M, 200 μM S‐2302, 10 nM α‐FXIIa.
Consider “glutathione‐S‐transferase [GST, reference compound]”, for which the “IC50 (M)” value is “NIA”.

Staying with this test, now noted: IC50 corresponding to the pIC50; synthetic peptides 10^−6 M to 10^−3 M.
Take “IGPRLPWP [CTI(31–38), eight‐mer peptide spanning the loop between helices α1 and α2 (CTI residues 31–38)]”: the “IC50 (M)” value was “NIA”. Still for that read-out and setting: then “GISTAGPWRRRPPELLKVTY [Scrambled, scrambled control peptide]”, with “NIA”.

The same test, now with this note: synthetic peptides 10^−6 M to 10^−3 M, 200 μM S‐2302, 10 nM α‐FXIIa, 33 °C, initial rate; SE of the fit, n = 3–5 independent experiments.
Regarding “IGPRLPWP [CTI(31–38), eight‐mer peptide spanning the loop between helices α1 and α2 (CTI residues 31–38)]”, the “pIC50 ± SE” value is “NIA”. “GISTAGPWRRRPPELLKVTY [Scrambled, scrambled control peptide]”: the “pIC50 ± SE” value is recorded as “NIA”.

Staying with this test, now noted: synthetic peptides 10^−6 M to 10^−3 M, 200 μM S‐2302, 10 nM α‐FXIIa, 33 °C, initial rate; SE of the fit, n = 3–5 independent experiments; SEM.
For the molecule RWYVTSRTAGIGPRLPWPELKR [CTI(21–42)], the half-maximal inhibitory concentration (IC50) was 200 µM. Consider YVTSRTAGIGPRLPWPELKRR [CTI(23–43)], for which the IC50 is 1150 µM.

Regarding RWYVTSRTAGIGPRLPWPELKRR [CTI(21–43)], the IC50 was 457 µM.

The test is the same for the next values; noted with them: synthetic peptides; relative to recombinant CTI.
For `CC[C@H](C)[C@@H]1NC(=O)CNC(=O)[C@H](C)NC(=O)[C@H]([C@@H](C)O)NC(=O)[C@H](CCCNC(=N)N)NC(=O)[C@H](CO)NC(=O)[C@H]([C@@H](C)O)NC(=O)[C@H](C(C)C)NC(=O)[C@H](Cc2ccc(O)cc2)NC(=O)[C@H](Cc2c[nH]c3ccccc23)NC(=O)[C@H](CCCNC(=N)N)NC(=O)[C@@H](N)CSSC[C@@H](C(=O)O)NC(=O)[C@H](CCCNC(=N)N)NC(=O)[C@H](CCCNC(=N)N)NC(=O)[C@H](CCCCN)NC(=O)[C@H](CC(C)C)NC(=O)[C@H](CCC(=O)O)NC(=O)[C@@H]2CCCN2C(=O)[C@H](Cc2c[nH]c3ccccc23)NC(=O)[C@@H]2CCCN2C(=O)[C@H](CC(C)C)NC(=O)[C@H](CCCNC(=N)N)NC(=O)[C@@H]2CCCN2C(=O)CNC1=O` [CTI(20–44)] (H-CRWYVTSRTAGIGPRLPWPELKRRC-OH; disulfide 1-25; N-terminus and C-terminus assumed), the “Fold reduction in inhibitory activity as compared with rec‐CTI” value came out at 2416 fold.

A further test deals with Full length activated FXIIa (α‐FXIIa) (UniProt P00748).
Assay: not given
Conditions: not given
Turning to rec‐CTI R27A (natural protein), the IC50 of inhibition of α‐FXIIa enzymatic activity (S‐2302 cleavage) was determined as 0.17 µM and the pIC50 of inhibition of α‐FXIIa enzymatic activity (S‐2302 cleavage) was 6.78. rec‐CTI R27A/E39A (natural protein) yielded an IC50 of inhibition of α‐FXIIa enzymatic activity (S‐2302 cleavage) of 0.26 µM and a pIC50 of inhibition of α‐FXIIa enzymatic activity (S‐2302 cleavage) of 6.58.

rec‐CTI G30W (natural protein) yielded an IC50 of inhibition of α‐FXIIa enzymatic activity (S‐2302 cleavage) of 0.48 µM and a pIC50 of inhibition of α‐FXIIa enzymatic activity (S‐2302 cleavage) of 6.32. rec‐CTI W22A (natural protein) yielded an IC50 of inhibition of α‐FXIIa enzymatic activity (S‐2302 cleavage) of 19 µM and a pIC50 of inhibition of α‐FXIIa enzymatic activity (S‐2302 cleavage) of 4.72.

As for rec‐CTI R42A (natural protein), the IC50 of inhibition of α‐FXIIa enzymatic activity (S‐2302 cleavage) is 0.19 µM and the pIC50 of inhibition of α‐FXIIa enzymatic activity (S‐2302 cleavage) stood at 6.72. In turn, rec‐CTI R27A/R42A (natural protein) showed an IC50 of inhibition of α‐FXIIa enzymatic activity (S‐2302 cleavage) of 0.16 µM and a pIC50 of inhibition of α‐FXIIa enzymatic activity (S‐2302 cleavage) of 6.8. The like results for “recombinant CTI (rec‐CTI) (natural protein)” were, in that order, 0.12 µM and 6.94. As to rec‐CTI G32W (natural protein), the IC50 of inhibition of α‐FXIIa enzymatic activity (S‐2302 cleavage) was 13 µM and the pIC50 of inhibition of α‐FXIIa enzymatic activity (S‐2302 cleavage) amounted to 4.89. For rec‐CTI W37A (natural protein), the IC50 of inhibition of α‐FXIIa enzymatic activity (S‐2302 cleavage) turned out to be 0.11 µM and the pIC50 of inhibition of α‐FXIIa enzymatic activity (S‐2302 cleavage) was determined as 6.97. Taken in the same sequence, the figures for rec‐CTI R42A/R43A (natural protein) were 11 µM and 4.98. rec‐CTI L35A (natural protein) showed an IC50 of inhibition of α‐FXIIa enzymatic activity (S‐2302 cleavage) of 4.9 µM and a pIC50 of inhibition of α‐FXIIa enzymatic activity (S‐2302 cleavage) of 5.31. As for rec‐CTI E39A (natural protein), the IC50 of inhibition of α‐FXIIa enzymatic activity (S‐2302 cleavage) was found to be 0.14 µM and the pIC50 of inhibition of α‐FXIIa enzymatic activity (S‐2302 cleavage) turned out to be 6.85.
